# Data as given in patent publication US7901902B2, “Methods and compositions for identifying a cellular immune response against prostate cancer” (BioSante Pharmaceuticals, Inc., priority 2006, dated 2011).
# Target: HLA-A2 (Homo sapiens, UniProt P04439, D140Y/D185E/D98H/E176V/E277Q/G131W/G231S/I119V/I121R/I166T/I218V/L300P/L318F/N151K/N90K/P208A/P217A/Q86G/Q94H/R138H/R169H/T345S)
# Assay: HLA-A2 peptide binding assay on T2 cells (fluorescence index, flow cytometry)
# Conditions: summary of Tables 2 and 3
row,upregulation of HLA-A2 expression (in words),Sequence
1,upregulated HLA-A2 weakly,"KLILGLVWT (Filamin-B peptides) [Filamin B peptide # 7, 9-mer peptide selected from the filamin-B polypeptide]"
2,moderate upregulation,"SLQESGLKV (Filamin-B peptides) [Filamin B peptide # 4, 9-mer peptide selected from the filamin-B polypeptide]"
3,greatest upregulation,"RLIALLEVL (Filamin-B peptides) [Filamin B peptide # 5, 9-mer peptide selected from the filamin-B polypeptide]"
4,greatest upregulation,"GLAPLEVRV (Filamin-B peptides) [Filamin B peptide # 3, 9-mer peptide selected from the filamin-B polypeptide]"
5,moderate upregulation,"GQGDVMVFV (Filamin-B peptides) [Filamin B peptide # 6, 9-mer peptide selected from the filamin-B polypeptide]"
6,moderate upregulation,"GLVEPVNMV (Filamin-B peptides) [Filamin B peptide # 2, 9-mer peptide selected from the filamin-B polypeptide]"
7,greatest upregulation,"LILGLVWTL (Filamin-B peptides) [Filamin B peptide # 1, 9-mer peptide selected from the filamin-B polypeptide]"
